T1: monkey Trop2 on CHO-K1 cells (monkey, UniProt A0A2K5UE71 27-323)
T1 construct: also called CHO-K1/monkey Trop2
T1 sequence: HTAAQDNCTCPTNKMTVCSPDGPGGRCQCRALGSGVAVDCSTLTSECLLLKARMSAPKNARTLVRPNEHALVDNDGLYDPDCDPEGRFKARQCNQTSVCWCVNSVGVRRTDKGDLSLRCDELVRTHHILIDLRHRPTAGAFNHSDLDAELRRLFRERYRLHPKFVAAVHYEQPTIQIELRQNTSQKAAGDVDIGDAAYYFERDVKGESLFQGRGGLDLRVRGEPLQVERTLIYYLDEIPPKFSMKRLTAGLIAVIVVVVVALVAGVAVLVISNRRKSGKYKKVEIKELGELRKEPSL

T2: mouse Trop2-his protein (Sino Biological, #50922-M08H) (mouse, UniProt Q8BGV3 25-270)
T2 construct: bought protein; also called mouse Trop2 protein; not shown: his tag
T2 sequence (looked up): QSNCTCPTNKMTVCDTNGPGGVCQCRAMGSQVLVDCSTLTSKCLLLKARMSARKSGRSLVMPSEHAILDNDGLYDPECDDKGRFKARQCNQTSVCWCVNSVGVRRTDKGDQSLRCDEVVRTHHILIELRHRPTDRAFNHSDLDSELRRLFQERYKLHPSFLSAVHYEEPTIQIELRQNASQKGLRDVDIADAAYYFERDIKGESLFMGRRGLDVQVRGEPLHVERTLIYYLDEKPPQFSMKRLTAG

B1: PR001165 (antibody, human IgG1, kappa, V domains shown)
VH: QVQLVESGGGVVQPGRSLRLSCEASGFTFSHYGMHWVRQAPGKGLEWVAVIWYDGIKTYYVESVKGRFTISRDNSKNTLNLQMNRLRAEDTAVYYCARDGGFGESNYYGLDVWGQGTTVTVSS
VL: DIQLTQSPSFLSASVGDRVTITCRASQGISSYLGWYQQKPGKAPKLLIYIASTLQSGVPSRFSGSGSGTEFTLTISSLQPEDFATYYCQQLNSYPYTFGQGTKLEIKR
notes: fully human IgG1/kappa; also called antibody No. (26)
B2: comparative example 2 antibody Tab (hRS7) (antibody, human IgG1, kappa, V domains shown)
VH: QVQLQQSGSELKKPGASVKVSCKASGYTFTNYGMNWVKQAPGQGLKWMGWINTYTGEPTYTDDFKGRFAFSLDTSVSTAYLQISSLKADDTAVYFCARGGFGSSYWYFDVWGQGSLVTVSS
VL: DIQLTQSPSSLSASVGDRVSITCKASQDVSIAVAWYQQKPGKAPKLLIYSASYRYTGVPDRFSGSGSGTDFTLTISSLQPEDFAVYYCQQHYITPLTFGAGTKVEIKR
notes: prepared on the basis of sacituzumab govitecan (ChemPartner, #T07-001); naked antibody

Key:
[1] = target: T1, monkey Trop2 on CHO-K1 cells; assay: flow cytometry on CHO-K1/monkey Trop2 cells (second run)
Method: CHO-K1/monkey Trop2 cells (Chempartner, Shanghai, China) and CHO-K1 blast cells were each digested with 3 mL of TrypLE, and the digestion was stopped with 7 mL of the corresponding medium. […] The cell solution was centrifuged, and the cells were washed once with PBS+0.5% BSA. […] The cells were washed once with PBS+0.5% BSA. The cells were incubated at 4° C. for 1 h in the dark with 100 μL of Alexa Fluor 488 goat anti-human IgG (Life technologies, #A-11013) diluted at 1:1000, and washed twice with PBS+0.5% BSA. The cells were resuspended in 200 μL of PBS+0.5% BSA. The suspension was centrifuged at 4° C. for 5 min at 2000 rpm and tested using a FACS verse flow cytometer or NovoCyte flow cytometer (ACEA Biosciences). All procedures were performed on ice.

[2] = target: T2, mouse Trop2-his protein (Sino …); assay: ELISA, plate coated with mouse Trop2-his protein
Method: An ELISA plate was coated with 100 μL of 1 μg/mL mouse Trop2-his protein (Sino Biological, #50922-M08H) in PBS at 4° C. overnight. The plate was blocked with 200 μL of PBST (PBS+0.05% tween 20)+2% BSA at 37° C. for 1 h. The plate was washed 4 times with PBST. 100 μL of Trop2 antibody diluted in a gradient (5-fold dilution, starting concentration: 33.33 nM) was added to the ELISA plate and the plate was incubated at 37° C. for 1 h. The plate was washed 4 times with PBST. 100 μL of anti-human IgG (H+L)-HRP (Sigma, #A8667) diluted in 1:4000 was added and the plate was incubated at 37° C. for 1 h. The plate was washed 4 times with PBST. 100 μL of TMB substrate (Invitrogen, #88-7025-88) was added and the plate was incubated at room temperature for 5 min, and then 50 μL of stop buffer (BBI life sciences, #E661006-0200) was added to stop the reaction. The OD450 nm reading was recorded using a microplate reader (Perkin Elmer, EnSpire).

Binder	EC50 [1] [nM]	binding result [2]
B1	1.8	–
B2	1.3	no binding (tested: 33.33 nM (starting concentration))
